# Where two headings read alike, the source gives them in different places.
# Tests used:
# Type in all cases: cell-based
# [1] = molecular target: T1, human GLP-1 receptor (hGLP-1r) (Homo sapiens, UniProt P43220); assay: BSA-cAMP assay, cells expressing human GLP-1 receptor; conditions: BSA-cAMP assay, read-out: hGLP1r cAMP activity EC50
# T1 construct: expressed in transfected cells
# Method in brief: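 EC50 came from an unconstrained 4-parameter logistic fit of HTRF cAMP data expressed as percent of maximal native agonist activation, tested on two occasions. Thawed receptor-expressing cells (hGLP-1r, hGIPr at 0.5×10^5 cells/ml) treated 30 min at room temperature in 0.1% BSA-containing medium; two distinct hGIPr lines.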
# [2] = molecular target: T2, human glucagon receptor (GCGr) (Homo sapiens, UniProt P47871); assay: BSA-cAMP assay, cells expressing human glucagon receptor
# T2 construct: expressed in transfected cells; host or cells: HEK293s or CHO cells
# T2 sequence (P47871 26-477): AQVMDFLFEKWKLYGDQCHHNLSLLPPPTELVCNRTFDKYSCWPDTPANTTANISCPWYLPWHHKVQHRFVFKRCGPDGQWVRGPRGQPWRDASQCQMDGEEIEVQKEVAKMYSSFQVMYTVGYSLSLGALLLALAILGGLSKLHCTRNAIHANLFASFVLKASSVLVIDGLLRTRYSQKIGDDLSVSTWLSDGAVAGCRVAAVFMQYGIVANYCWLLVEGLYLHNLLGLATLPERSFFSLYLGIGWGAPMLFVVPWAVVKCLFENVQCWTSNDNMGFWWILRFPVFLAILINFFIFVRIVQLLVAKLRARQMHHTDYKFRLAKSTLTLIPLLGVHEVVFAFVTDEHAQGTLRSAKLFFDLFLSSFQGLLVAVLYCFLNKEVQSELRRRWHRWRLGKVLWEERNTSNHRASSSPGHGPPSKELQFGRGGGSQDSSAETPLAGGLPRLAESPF
# [3] = molecular target: T3, mouse GLP-1 receptor (mGLP-1r) (Mus musculus, UniProt O35659); assay: BSA-cAMP assay, cells expressing mouse GLP-1 receptor; conditions: BSA-cAMP assay, read-out: mGLP1r cAMP activity EC50
# T3 construct: expressed in transfected cells; host or cells: HEK293s or CHO cells
# T3 sequence (O35659 22-463): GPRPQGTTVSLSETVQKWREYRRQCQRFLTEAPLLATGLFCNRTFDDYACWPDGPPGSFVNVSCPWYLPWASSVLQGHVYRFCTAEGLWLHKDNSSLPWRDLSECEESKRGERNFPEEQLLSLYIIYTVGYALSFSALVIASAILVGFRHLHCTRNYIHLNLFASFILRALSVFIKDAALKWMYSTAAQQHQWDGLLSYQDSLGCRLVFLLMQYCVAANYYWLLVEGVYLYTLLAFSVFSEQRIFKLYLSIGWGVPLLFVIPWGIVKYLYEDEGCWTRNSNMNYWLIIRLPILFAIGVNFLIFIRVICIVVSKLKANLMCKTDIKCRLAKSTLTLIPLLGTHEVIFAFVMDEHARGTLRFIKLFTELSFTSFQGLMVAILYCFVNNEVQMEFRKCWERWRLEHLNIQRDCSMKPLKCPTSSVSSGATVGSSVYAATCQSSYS
# Method in brief: (§1)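 EC50 is the midpoint of an unconstrained 4-parameter logistic fit to HTRF cAMP data, expressed as percent of maximal native agonist response, from two separate occasions. Rodent (mouse, rat) GLP-1R- or GIPR-expressing cells were incubated with compound 30 min at room temperature in 0.1% BSA medium, in duplicate.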
# [4] = molecular target: T4, mouse GIP receptor (mGIPr) (Mus musculus, UniProt Q0P543); assay: BSA-cAMP assay, cells expressing mouse GIP receptor; conditions: BSA-cAMP assay, read-out: mGIPr cAMP activity EC50
# T4 construct: expressed in transfected cells; host or cells: HEK293s or CHO cells
# T4 sequence (Q0P543 19-460): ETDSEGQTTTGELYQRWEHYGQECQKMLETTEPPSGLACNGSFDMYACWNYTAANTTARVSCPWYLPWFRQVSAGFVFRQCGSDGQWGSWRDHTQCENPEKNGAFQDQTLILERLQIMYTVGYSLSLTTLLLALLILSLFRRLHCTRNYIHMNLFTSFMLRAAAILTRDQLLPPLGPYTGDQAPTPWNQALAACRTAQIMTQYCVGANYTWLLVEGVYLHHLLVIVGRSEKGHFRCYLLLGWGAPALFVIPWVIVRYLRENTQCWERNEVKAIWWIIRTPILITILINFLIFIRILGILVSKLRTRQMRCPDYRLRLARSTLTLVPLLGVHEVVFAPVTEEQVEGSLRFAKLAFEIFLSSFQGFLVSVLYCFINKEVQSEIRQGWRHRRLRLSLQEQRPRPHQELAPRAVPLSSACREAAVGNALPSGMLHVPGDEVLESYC
# Method in brief: as §1
# [5] = molecular target: T5, rat GIP receptor (rGIPr) (Rattus norvegicus, UniProt P43219); assay: BSA-cAMP assay, cells expressing rat GIP receptor; conditions: BSA-cAMP assay, read-out: rGIPr cAMP activity EC50
# T5 construct: expressed in transfected cells; host or cells: HEK293s or CHO cells
# T5 sequence (P43219 19-455): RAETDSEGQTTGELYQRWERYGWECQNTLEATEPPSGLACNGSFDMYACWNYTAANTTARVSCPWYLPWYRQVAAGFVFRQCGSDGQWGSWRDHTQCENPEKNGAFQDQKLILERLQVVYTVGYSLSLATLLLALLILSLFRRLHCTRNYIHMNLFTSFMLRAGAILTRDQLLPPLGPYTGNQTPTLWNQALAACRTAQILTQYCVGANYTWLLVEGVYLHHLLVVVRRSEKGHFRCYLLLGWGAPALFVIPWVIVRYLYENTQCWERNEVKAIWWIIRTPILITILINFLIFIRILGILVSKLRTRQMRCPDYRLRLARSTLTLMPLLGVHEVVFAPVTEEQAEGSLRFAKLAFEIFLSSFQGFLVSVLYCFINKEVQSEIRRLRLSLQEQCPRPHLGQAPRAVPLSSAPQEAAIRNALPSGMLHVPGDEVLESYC
# Method in brief: as §1
# [6] = Batch 1, read-out: hGCGr cAMP activity EC50
# [7] = Batch 2, read-out: hGCGr cAMP activity EC50
# T1 sequence (P43220 24-463): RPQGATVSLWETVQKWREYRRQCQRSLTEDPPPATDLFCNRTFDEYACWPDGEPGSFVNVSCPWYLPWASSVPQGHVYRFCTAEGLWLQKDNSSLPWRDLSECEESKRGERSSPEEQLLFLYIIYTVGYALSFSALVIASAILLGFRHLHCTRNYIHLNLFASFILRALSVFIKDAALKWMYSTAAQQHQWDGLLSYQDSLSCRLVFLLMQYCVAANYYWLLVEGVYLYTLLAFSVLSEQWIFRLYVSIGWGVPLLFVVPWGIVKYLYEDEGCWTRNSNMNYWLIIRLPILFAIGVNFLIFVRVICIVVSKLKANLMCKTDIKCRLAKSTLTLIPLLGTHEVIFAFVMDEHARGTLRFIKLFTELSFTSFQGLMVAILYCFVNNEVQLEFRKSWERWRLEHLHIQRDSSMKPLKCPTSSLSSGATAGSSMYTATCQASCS
EC50 ([1]; Batch 1),EC50 ([1]; Batch 2),"EC50 [2, 6]","EC50 [2, 7]",EC50 ([3]; Batch 1),EC50 ([4]; Batch 1),EC50 ([5]; Batch 1),EC50 ([3]; Batch 2),EC50 ([4]; Batch 2),EC50 ([5]; Batch 2),Substance
160 nM,260 nM,3800 nM,3800 nM,2500 nM,> 3930 nM,130 nM,–,–,–,IP320 (YSEGTFTSDYAAAAEAAAAAAFAAWLAAAAGGGGGSGGGGSGGGGSGGGGSACPPC)
0.11 nM,0.11 nM,330 nM,250 nM,1.2 nM,0.28 nM,0.19 nM,2.5 nM,0.78 nM,0.014 nM,IP396 (YSEGTFTSDYSKLLERQAIDEFIAWLLKGGGGGGGSGGGGSGGGGSGGGGSACPPC)
0.073 nM,–,> 440 nM,–,1.2 nM,0.4 nM,0.018 nM,–,–,–,"IP412: Fc fusion, IgG1-TM, SEQ ID NO:387; agonist peptide YSEGTFTSDYSKLLEEEANRLFIEWLLAGG (YSEGTFTSDYSKLLEEEANRLFIEWLLAGGGGGGSGGGGSGGGGSGGGGSATHTCPPC)"
